Laboratory results: patent publication US20240400654A1
Values joined by “and” are separate entries in the source; they are usually repeats but may differ in a detail not shown here. Equal entries are not always repeated.

Target: HRgpA-6H (Porphyromonas gingivalis) (UniProt P28784)
Experiment: ELISA, coated HRgpA-6H

UniProt P28784, sequence (P28784 228-860 limits assumed): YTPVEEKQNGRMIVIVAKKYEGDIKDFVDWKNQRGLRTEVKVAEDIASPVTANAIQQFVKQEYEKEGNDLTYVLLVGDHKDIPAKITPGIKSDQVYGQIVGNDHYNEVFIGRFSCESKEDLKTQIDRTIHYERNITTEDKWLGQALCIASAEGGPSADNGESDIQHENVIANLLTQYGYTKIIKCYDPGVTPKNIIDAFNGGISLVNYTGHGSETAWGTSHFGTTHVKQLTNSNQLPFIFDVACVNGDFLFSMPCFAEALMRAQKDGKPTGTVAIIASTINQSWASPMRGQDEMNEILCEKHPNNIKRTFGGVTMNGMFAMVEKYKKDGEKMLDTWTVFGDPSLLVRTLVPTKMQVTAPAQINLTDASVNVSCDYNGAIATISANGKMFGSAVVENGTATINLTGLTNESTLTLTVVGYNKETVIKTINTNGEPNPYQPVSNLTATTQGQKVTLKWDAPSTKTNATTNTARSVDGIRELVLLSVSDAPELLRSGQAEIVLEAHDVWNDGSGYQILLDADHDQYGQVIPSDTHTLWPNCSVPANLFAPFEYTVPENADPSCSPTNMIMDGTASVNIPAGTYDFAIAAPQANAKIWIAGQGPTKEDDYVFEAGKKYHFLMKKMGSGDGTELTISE

Binder	OD450 nm	Ratio OD(Variant)/OD(WT)
KB001 mouse Fab VL N54E (Fab, V domains shown) VH: EVQLKQSGPGLVAPSQSLSITCTVSGFSLSIYSVHWVRQPPGKGLEWLGMIWGGGSSDYNSALKSRLSISKDNSKSQVFLKMNSLQTDDTAMYYCARNGNFYAMDYWGQGTSVTVSS VL: QIVLTQSPAIMSASLGERVTMTCTASSSVSSSFLHWYQQKPGSSPQLWIYSTSELASGVPARFSGSGSGTSYSLTISSMEAEDAATYYCHQYHHSPYIYTFGGGTKLEIK	0.744 and 0.74	0.95 and 0.944
KB001 mouse Fab VL N54D (Fab, V domains shown) VH: EVQLKQSGPGLVAPSQSLSITCTVSGFSLSIYSVHWVRQPPGKGLEWLGMIWGGGSSDYNSALKSRLSISKDNSKSQVFLKMNSLQTDDTAMYYCARNGNFYAMDYWGQGTSVTVSS VL: QIVLTQSPAIMSASLGERVTMTCTASSSVSSSFLHWYQQKPGSSPQLWIYSTSDLASGVPARFSGSGSGTSYSLTISSMEAEDAATYYCHQYHHSPYIYTFGGGTKLEIK	0.725	0.925
KB001 mouse Fab VL N54F (Fab, V domains shown) VH: EVQLKQSGPGLVAPSQSLSITCTVSGFSLSIYSVHWVRQPPGKGLEWLGMIWGGGSSDYNSALKSRLSISKDNSKSQVFLKMNSLQTDDTAMYYCARNGNFYAMDYWGQGTSVTVSS VL: QIVLTQSPAIMSASLGERVTMTCTASSSVSSSFLHWYQQKPGSSPQLWIYSTSFLASGVPARFSGSGSGTSYSLTISSMEAEDAATYYCHQYHHSPYIYTFGGGTKLEIK	0.765	0.976
KB001 mouse Fab VL L55Q (Fab, V domains shown) VH: EVQLKQSGPGLVAPSQSLSITCTVSGFSLSIYSVHWVRQPPGKGLEWLGMIWGGGSSDYNSALKSRLSISKDNSKSQVFLKMNSLQTDDTAMYYCARNGNFYAMDYWGQGTSVTVSS VL: QIVLTQSPAIMSASLGERVTMTCTASSSVSSSFLHWYQQKPGSSPQLWIYSTSNQASGVPARFSGSGSGTSYSLTISSMEAEDAATYYCHQYHHSPYIYTFGGGTKLEIK	0.711 and 0.692 and 0.684	0.907 and 0.883 and 0.873
KB001 mouse Fab VL N54A (Fab, V domains shown) VH: EVQLKQSGPGLVAPSQSLSITCTVSGFSLSIYSVHWVRQPPGKGLEWLGMIWGGGSSDYNSALKSRLSISKDNSKSQVFLKMNSLQTDDTAMYYCARNGNFYAMDYWGQGTSVTVSS VL: QIVLTQSPAIMSASLGERVTMTCTASSSVSSSFLHWYQQKPGSSPQLWIYSTSALASGVPARFSGSGSGTSYSLTISSMEAEDAATYYCHQYHHSPYIYTFGGGTKLEIK	0.776	0.99
KB001 mouse Fab VL L55S (Fab, V domains shown) VH: EVQLKQSGPGLVAPSQSLSITCTVSGFSLSIYSVHWVRQPPGKGLEWLGMIWGGGSSDYNSALKSRLSISKDNSKSQVFLKMNSLQTDDTAMYYCARNGNFYAMDYWGQGTSVTVSS VL: QIVLTQSPAIMSASLGERVTMTCTASSSVSSSFLHWYQQKPGSSPQLWIYSTSNSASGVPARFSGSGSGTSYSLTISSMEAEDAATYYCHQYHHSPYIYTFGGGTKLEIK	0.672	0.858
KB001 mouse Fab VL N54L (Fab, V domains shown) VH: EVQLKQSGPGLVAPSQSLSITCTVSGFSLSIYSVHWVRQPPGKGLEWLGMIWGGGSSDYNSALKSRLSISKDNSKSQVFLKMNSLQTDDTAMYYCARNGNFYAMDYWGQGTSVTVSS VL: QIVLTQSPAIMSASLGERVTMTCTASSSVSSSFLHWYQQKPGSSPQLWIYSTSLLASGVPARFSGSGSGTSYSLTISSMEAEDAATYYCHQYHHSPYIYTFGGGTKLEIK	0.774	0.988
KB001 mouse Fab VL L55T (Fab, V domains shown) VH: EVQLKQSGPGLVAPSQSLSITCTVSGFSLSIYSVHWVRQPPGKGLEWLGMIWGGGSSDYNSALKSRLSISKDNSKSQVFLKMNSLQTDDTAMYYCARNGNFYAMDYWGQGTSVTVSS VL: QIVLTQSPAIMSASLGERVTMTCTASSSVSSSFLHWYQQKPGSSPQLWIYSTSNTASGVPARFSGSGSGTSYSLTISSMEAEDAATYYCHQYHHSPYIYTFGGGTKLEIK	0.727	0.928
